B1: TPR t1 (parent)
chain: GACCAAUCUGCCCUCAGAGCUCGAGAACAUCUUCGGAUGCAGAGGAGGCAGGCUUCGGUGGCGCGAUAGCGCCAACGUCCUCAACCUCCAAUGCAUCCCACCACAUGAUGAUGCCUGAAGAGCCUUGGUUUUUUG

Variants of: B1
Test: polymerase ribozyme fitness, log enrichment relative to wild type (log ratio); higher = more active; in vitro selection for triplet polymerase activity
Outline: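 The heterodimeric triplet polymerase ribozyme's subunits were each mutagenized into PCR-built libraries and transcribed. Every library was selected once, in triplicate, by annealing with a biotinylated primer, the partner subunit and triplets, incubating frozen at −7 °C, gel-excising extended constructs, capturing on streptavidin beads and running RT-PCR. Input and output libraries were Illumina-sequenced, with genotypes kept only at ≥10 input reads and ≥1 read per output. Fitness, from inverse-variance-weighted replicate averages, is the base-2 logarithm of genotype enrichment over wild-type enrichment.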

GACCAAUCUGCCCUCAGAGCUCGAGAACAUCUUCGGAUGCAGAGGAUGCAGGCUUCGGUGGCGCGAUAGCGCCAACUUCCUCAACCUCCAAUGCAUCCCACCACAUGAUGAUGCCUGAAGAGCCUUGGUUUUUUG and GACCAAUCUGCCCUCAGAGCUCGAGAACAUCUUCGGAUGCAGAGGAUGCAGGCUUCGGUGGCGCGAUAGCGCCAACAUCCUCAACCUCCAAUGCAUCCCACCACAUGAUGAUGCCUGAAGAGCCUUGGUUUUUUG are within 0.2 log units of each other in “polymerase ribozyme fitness (log ratio)” value: -2.07 for the first, -2.15 for the second.

First: GACCAAUCUGCCCUCAGAGCUCGAGAACAUCUUCGGAUGCAGAGGAUGCAGGCUUCGGUUGCGCGAUAGCGCCAACGUCCUCAACCUCCAAUGCAUCCCACCACAUGAUGAGGCCUGAAGAGCCUUGGUUUUUUG
Second: GACCAAUCUGCCCUCAGAGCUCGAGAACAUCUUCGGAUGCAGAGGAUGCAGGCUUCGGUGGCGCGAUAGCACCAACGUCCUCAACCACCAAUGCAUCCCACCACAUGAUGAUGCCUGAAGAGCCUUGGUUUUUUG
The “polymerase ribozyme fitness (log ratio)” value of the first is higher: -1.51 for the first, -4.27 for the second.

First: GACCAAUCUGCCCUCAGAGCUCGAGAACAUCUUCGGAUGCAGAGGAUGCAGGCUUCGGUGGCGCGAUAGCGCCAACGUCCUCAACCUCCAAUGCAUCCCACCACAUGAUGAUGCCUGAAAAGCCUUGGUUUUUUG
Second: GACCAAUCUGCCCUCAGAGCUCGAGAACAUCUUCGGAUGCAGAGGAUGCAGGCUUCGGUGGCGCGAUAGCGCCAACGUCCUCAACCUCCAAUGCAUCCCACCACAUGAUGAUGCAUGAAGAGCCUUGGUUUUUUG
The “polymerase ribozyme fitness (log ratio)” value of the first is higher: -0.734 for the first, -2.9 for the second.

First: GACCAAUCUGCCCUCAGAGCUCGAGAACAUCUUCGGAUGCAGAGGAUGCAGGCUUCGGUGGCGCGAUAGCGCCAACGUCCUCAACCUCCAAUGCAUCCCACCACAUGAUGAUGCCUUAAGAGCCUUGGUUUUUUG
Second: GACCAAUCUGCCCUCAGAGCUCGAGAACAUCUUCGGAUGCAGAGGAUGCAGGCUUCGCUGGCGCGAUAGCGCCAACGUCCUUAACUUCCAAUGCAUCCCACCACAUGAUGAUGCCUGAAGAGCCUUGGUUUUUUG
The “polymerase ribozyme fitness (log ratio)” value of the first is lower: -2.78 for the first, -1.04 for the second.

First: GACCAAUCUGCCCUCAGAGCUCGAGAACAUCUUCGGAUGCAGAGGAUGCAUGCUUCGGUCGCGCGAUAGCGCCAACGUCCUCAACCUCCAAUGCAUCCCACCACAUGAUGAUGCCUGAAGAGCCUUGGUUUUUUG
Second: GACCAAUCUGCCCUCAGAGCUCGAGAACAUCUUCGGAUGCAGAGGAUGCAGGAUUCGGUGGCGCGAUAGCGCCAACGUCCUCAACCUCCAAUGCAUCCCACCACAUGAUGAUGCCUGAAGAGCCUUGGGUUUUUG
The “polymerase ribozyme fitness (log ratio)” value of the first is lower: -3.98 for the first, -2.44 for the second.

First: GACCAAUCUGCCCUCAGAGCUCGAGAACAUCUUCGGAUGCAGAGGAUGCAGGCUUCGGUGGCGCGAUAGCGCGAACGUCCUUAACCUCCAAUGCAUCCCACCACAUGAUGAUGCCUGAAGAGCCUUGGUUUUUUG
Second: GACCAAUCUGCCCUCAGAGCUCGAGAACAUCUUCGGAUGCAGAGGAUGCAGGCUUCGGUGGCGCGAUAGCGCCAACGUCGUCAACCACCAAUGCAUCCCAUCACAUGAUGAUGCCUGAAGAGACUUAGUUUUUUG
The “polymerase ribozyme fitness (log ratio)” value of the first is higher: -2.22 for the first, -5.76 for the second.

First: GACCAAUCUGCCCUCAGAGCUCGAGAACAUCUUCGGAUGCAGAGGAUGCAGGCUUCGGUGGCGCGAUAGCGCCAACGUCCUCAACCUCCAAUGCAUCCCACCACAUGAUGAUGCCUGAAGAGACUUGGUUUUUUG
Second: GACCAAUCUGCCCUCAGAGCUCGAGAACAUCUUCGGAUGCAGAGGAUGCAGGCUUCGGUGCCGCGAUAGCGCCAACGUCCUCAACCUCCAAUGCAUCCCACCACAUGAUGCUGCCUGAAGAGCCUUGGUUUUUUG
The “polymerase ribozyme fitness (log ratio)” value of the first is higher: -0.877 for the first, -2.97 for the second.

Going from GACCAAUCUGCCCUCAGAGCUCGAGAACAUCUUCGGAUGCAGAGGAUGCAGGCUUCGGUGCCGCGAUAGCGCCAACGUCCUCAACCUCCAAUGCAUCCCACCACAUGAUGAUGCCUGAAGAGCCUGGGUUUUUUG to GACCAAUCUGCCCUCAGAGCUCGAGAACAUCUUCGGAUGCAGAGGAUGCAGGCUUCGGUGGCGCGAUAGCGCCAACGUCCUCAACCUCCAAUGCAUCCCAUCACAUGAUGAUGCCUGAAGAGCCGCGGUUUUUUG, the “polymerase ribozyme fitness (log ratio)” value rises from -4.45 to -2.99.

First: GACCAAUCUGCCCUCAGAGCUCGAGAACAUCUUCGGAUGCAGAGGAUGCAGGCUUUGGUGGCGCGAUAGCGCCAACGUCCUCAACCUCCAAUGCUUCCCACCACAUGAUGAUGCCUGAAGAGCCUUGGUUUUUUG
Second: GACCAAUCUGCCCUCAGAGCUCGAGAACAUCUUCGGAUGCAGAGGAUGCAGGCUUCGGUGGCGCGAUAGCGUCAACGCCCUCAACCUCCAAUGCAUCCCACCACAUGAUGAUCCCUGAAGAGCCUUGGUUUUUUG
The “polymerase ribozyme fitness (log ratio)” value of the first is higher: -1.34 for the first, -3.65 for the second.

GACCAAUCUGCCCUCAGAGCUCGAGAACAUCUUCGGAUGCAGAGGAUUCAGGCUUCGGAGGCGCGAUAGCGCCAACGUUCUCAACCUCCAAUGCAUCCCACCACAUGAUGAUGCCUGAAGAGCCUUGGUUUUUUG and GACCAAUCUGCCCUCAGAGCUCGAGAACAUCUUCGGAUGCAGAGGAUGCAGGCUUCGGUGGCGCGAUAGCGCCAACGUCCUCAACCUCCAAUGCAUCCCACCACAUGAUUAUGCCUGAAGAGCCUUGGUUUUUUG are within 0.2 log units of each other in “polymerase ribozyme fitness (log ratio)” value: -3.11 for the first, -3.1 for the second.

For GACCAAUCUGCCCUCAGAGCUCGAGAACAUCUUCGGAUGCAGAGGAUGCAGGCUUCGGUGGCGCGAUAGCGCCAACGUCCUCAACCUCCAAUGCAUCCCACCACAUGAUAAUGCCUGAAGAGCCUUGGUUUUUUG, the “polymerase ribozyme fitness (log ratio)” value was -2.29.
